Measured values from IntAct's records for PubMed 25122212.

B1: Envelope small membrane protein (Human SARS coronavirus), P59637 (parent)
chain: MYSFVSEETGTLIVNSVLLFLAFVVFLLVTLAILTALRLCAYCCNIVNVSLVKPTVYVYSRVKNLNSSEGVPDLLV

Variants of: B1
Settings: with SDCBP

Variant | effect of a mutation on the interaction
E69A;V71A;D73A;L75A | with no effect

Variants of: B1
Settings: with SDCBP
Remark: another data set of the same source

Variant | effect of a mutation on the interaction
D73G;L74G;L75G;V76G | decreasing interaction strength
